Test system: MS2 coat protein
Test: apparent KD of MS2 coat protein; designed switch direction (-1 OFF switch, 1 ON switch): -1; higher = weaker reporter binding
Summary of the method: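 The buffer was Tris-HCl pH 7.5 with KCl, MgCl2, BSA, DTT, tRNA and Tween-20. In it, SNAP-549-labelled MS2 coat protein was titrated in doubling steps from 0.7 or 1.5 nM to 3 µM over chip-bound RNA switches transcribed by stalled E. coli RNA polymerase on Illumina chips. Apparent KD is the per-design median over clusters of curve fits to normalised fluorescence.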

[1] = input ligand: microRNA oligo, concentration not stated
[2] = Eterna round: R95, input ligand: microRNA oligo, concentration not stated
[3] = Eterna round: R95, input ligand: FMN 200 uM
[4] = Eterna round: R95, input ligand: none

Row | Sequence | apparent KD of MS2 coat protein (input ligand: FMN 200 uM) [nM] | apparent KD of MS2 coat protein (input ligand: none) [nM] | apparent KD of MS2 coat protein [1] [nM] | apparent KD of MS2 coat protein [2] [nM] | apparent KD of MS2 coat protein [3] [nM] | apparent KD of MS2 coat protein [4] [nM]
1 | GAUCUAGGUGUCAGGAUAUGUAGCUAGGUAAGCAGACAGAAGGGACAUGAGGAUCACCCAUGUCGCAAAUUAAU [Gezadi] (Eterna round: R97, puzzle: Brourd's mod of Exclusion 4) | 86 | 18.5 | – | – | – | –
2 | ACAUGAGGAUCACCCAUGUGACAAUAAUGGCUGAUACAGAAACAGGAUAUUCGUGAAUAUCUAACGAAGAAGGGUUAUGACUGG [Deportation 68 - Jieux - Exclusion NG 3] (Eterna round: R96, puzzle: Exclusion NG 3) | 36.4 | 44 | 41 | – | – | –
3 | GUCGUGUUAGGAUAUAACAACUACUAAUAAAUUAGUAGUUGUUAGAAGGAACAUGAGGAUCACCCAUGUAUGAC [-23.4, -22.9 kcal, A 36%] (Eterna round: R97, puzzle: Exclusion 4) | 192 | 43.1 | – | – | – | –
4 | CUUAAACAUGAGGAUCACCCAUGUGAGGAUAUGAUGCGAAUAAAGAAAGAAGAAAGCAUCAGAAGGCACAUAUG (Eterna round: R96, puzzle: Exclusion 1) | – | – | 65.9 | – | – | –
5 | ACUCUACAUGAGGAUCACCCAUGUGAGGAUAUCAAAGCCAGAGCGGAUCUCUGGUCCAUGAGAAGGUGCAUGGU [ElNandoxlusion 3 - Jieux - Exclusion 1] (Eterna round: R97, puzzle: Exclusion 1) | 73.4 | 22.3 | – | – | – | –
6 | CUCGUGUGAGGAUAUCUAUUCCACGGACGGGAGUCUUGAUGAGAGAAGGCACAUGAGGAUCACCCAUGUAAUAA [Laveinxe] (puzzle: Exclusion 4) | – | – | – | 105 | – | –
7 | AAAAUGUCAGGAUAUGUGAAAGAAAAGAAAAGAAAAGAAAAACAGAAGGGACAUGAGGAUCACCCAUGUAAGAA [Exclusion 4 #3] (puzzle: Exclusion 4) | – | – | – | 25.2 | 21.6 | 27.1
8 | AAGAAACAUGAGGAUCACCCAUGUGAGGAUAUGACAAAGAAAAGAAAAGAAAGAAGACUCAGAAGGCACAAAGG [salish99-ex1_r3_039] (puzzle: Exclusion 1) | – | – | – | 40.6 | 46.3 | 52
9 | CCCUCACAUGAGGAUCACCCAUGUCAGGAUAUUCGACGGUAAAUUGGCCGUCUUAAAGGAAGAAGGGACGUAAC [Lesoorxe] (puzzle: Exclusion 1) | – | – | – | 13 | – | –
10 | UUUUAGUAAGGAUAUGUGGUACGCUUAAAAUAGGAAGGGACACAGAAGGUACAUGAGGAUCACCCAUGUGAACC [Eternabot (L1) Solution 49] (Eterna round: R97, puzzle: Exclusion 4) | 140 | 61.9 | – | – | – | –
11 | UUUUUACAUGAGGAUCACCCAUGUGAGGAUAUGGAGCGCGACCGCGCGGUCGCGUACACCAGAAGGCGCAUGAU [1st #77] (Eterna round: R97, puzzle: Exclusion 1) | 243 | 51.7 | – | – | – | –
12 | CCAAGCUUAUUCAUUAACAACAUGAGGAUCACCCAUGUGUAGGCAAUUAUGUUUGGGCUCUUUAGUGCUCGUCUUAU [Sensor-V1 #22] (Eterna round: R97, puzzle: Sensor, turn-off variant 1) | 14.7 | 14.7 | – | – | – | –
13 | AGUACUAUCACGAAAGUGAUAGUACAAUAAACAAGUGAAACAUGAGGAUCACCCAUGUCCUCAUUUGCUCGUCUUAU [Sensor 3 - 1] (puzzle: Sensor v3, turn-off variant 2) | – | – | – | 389 | 146 | 183
14 | CAGUACUGAGGAUAUACAUGAGGAUCACCCAUGUGUCCCAGCUAGGAAACUAGCAAAAGUAGAAGGCAGUACUG [Fiskers Ex 3 828 mod 1] (Eterna round: R96, puzzle: Exclusion 3) | – | – | 20.6 | – | – | –
15 | UGUUGUUACGCAGGAUAUGUAUGAGGAUCACCCAUUAAUAAAUUUUAACCACGAGGAUCACCCGUGUAGAAGGGCGGGUUAACA [pwkr exNG2 2xF5 1xFMN.13] (Eterna round: R96, puzzle: Exclusion NG 2) | 96.3 | 105 | 65 | – | – | –
16 | CUAUUACGAGGAUAUGAUUUAAAUAACAUGAGGAUCACCCAUGUUUUUACGUUAUUAUGUUCAGAAGGCGUAUUGU [JR_E5_Sub025] (puzzle: Exclusion 5) | – | – | – | 28 | – | –
17 | CUGCGUAGAGGAUAUACAUGAGGAUCACCCAUGUGCUAAAUGACUGCAUGCAAAUCGUGUAGAAGGUUGAAGGG [Eternabot (L2) Solution 85] (Eterna round: R97, puzzle: Exclusion 3) | 34.6 | 40.4 | – | – | – | –
18 | GACAUGAGGAUCACCCAUGUAACCUCAUGUAGGAAGGAGAGUAAGGAUAUAUAUGAAGGAAUGAAGUAGAAGGUGCAUAGAGAG [Default title] (Eterna round: R96, puzzle: Exclusion NG 3) | 539 | 854 | 1350 | – | – | –
19 | CAGCUGAAAGUCAGGAUAUCUAGAGCUUCGGCUCUAGAGAAGGGACAUGAGGAUCACCCAUGUGAUUACAGCUG [BmEx4/6-A1] (Eterna round: R97, puzzle: Brourd's mod of Exclusion 4) | 108 | 60.6 | – | – | – | –
20 | CGGCUACGAUGAGGAUAUACGCACAUGAGGAUCACCCAUGUAAAUCACGGGUAAAGAUCUUCAUCGUAGAAGGCAUAAGGGCCC [Edarbelabe] (Eterna round: R96, puzzle: Exclusion NG 2) | 31.8 | 31.4 | 20.9 | – | – | –
21 | ACAACAAGCUUUUUGAACGUAGAACAUGCAGCUCUAGUCACAUGAGGAUCACCCAUGUCAGCCAGUUAGAUAGGUGA [JR_SV3TOV2_Sub066] (puzzle: Sensor v3, turn-off variant 2) | – | – | – | 126 | 93.6 | 127
22 | ACCUCACAUGAGGAUCACCCAUGUCAGGAUAUACAAACCGUGUAAAGACACGGUCGUAGUAGAAGGGACUAUGG [Telalebees] (puzzle: Exclusion 1) | – | – | – | 59.1 | – | –
23 | GGUAUACAUGAGGAUCACCCAUGUCAGGAUAUGGUAUCCUGUGCCGAAAGGCACAGGUCCAGAAGGGACGAUAG [AK-MS2ROC-r4-exclusion1-5.2] (Eterna round: R97, puzzle: Exclusion 1) | 109 | 91.7 | – | – | – | –
24 | AUAAGUAUAUAGGAUAUCUAGCUGGAUACAGCUAGAGAAGGAUGUACAUGAGGAUCACCCAUGUAAAUCUCAAU [Ex6/12-A1] (Eterna round: R97, puzzle: Exclusion 6) | 18.7 | 15.1 | – | – | – | –
25 | AUAUCGUGAGGAUAUCCAAUAUAUGACAUGAGGAUCACCCAUGUUUCCACUCGUACCUCCGGAGAAGGCACAGUUU [Ex5 #71] (Eterna round: R97, puzzle: Exclusion 5) | 22.4 | 32.2 | – | – | – | –
26 | AAGGAUAGAGGAUAUACAUAGAUACAGAUUCAUGUAGAACUACAUGAGGAUCACCCAUGUAGAAGGCUAUCCUA [Mat - Same state - Mayanna Mod - D121] (Eterna round: R96, puzzle: Exclusion 2) | 316 | 33.3 | 24.8 | – | – | –

From the supplement of paper PMC9170038
